Assay results from publication PMC10514313, “Identification of enzymatic functions of osmo-regulated periplasmic glucan biosynthesis proteins from Escherichia coli reveals a novel glycoside hydrolase family” (Communications Biology, 2023).

What was measured:
[1] = molecular target: T1, EcOpgG (Escherichia coli, UniProt P33136, D361N); assay: X-ray crystal structure of the complex ([…] Å); type: binding; conditions: crystallised and soaked with β-1,2-glucan of average DP 17.7, Sop16 is the part seen in density; pH 5.0
T1 construct: gene mdoG; 56543 Da; homodimer
T1 sequence (P33136 23-511 D361N): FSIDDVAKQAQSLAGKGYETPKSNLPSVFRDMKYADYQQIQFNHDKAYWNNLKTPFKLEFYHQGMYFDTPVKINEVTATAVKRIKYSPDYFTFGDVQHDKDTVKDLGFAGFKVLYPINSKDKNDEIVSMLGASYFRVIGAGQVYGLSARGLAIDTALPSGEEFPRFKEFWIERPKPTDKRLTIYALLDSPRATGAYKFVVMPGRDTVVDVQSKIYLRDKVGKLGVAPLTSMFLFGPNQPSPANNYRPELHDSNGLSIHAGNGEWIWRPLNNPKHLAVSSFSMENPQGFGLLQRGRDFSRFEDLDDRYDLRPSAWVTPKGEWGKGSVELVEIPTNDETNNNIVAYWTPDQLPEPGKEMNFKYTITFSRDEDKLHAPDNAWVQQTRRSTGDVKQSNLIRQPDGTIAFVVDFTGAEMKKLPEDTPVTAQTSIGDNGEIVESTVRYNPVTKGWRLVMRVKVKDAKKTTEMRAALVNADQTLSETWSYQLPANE

[2] = molecular target: T2, EcOpgD (Escherichia coli, UniProt P40120, D388N); assay: X-ray crystal structure of the complex ([…] Å); type: binding; conditions: co-crystallised with β-1,2-glucan of average DP 121, Sop13 is the part seen in density (chain B; DP11 in chain A); pH 4.0; subsites -7 to +6; Table 3 prints the mutant as D378N
T2 construct: gene mdoD; 60601 Da; homodimer, Loop A of the other subunit completes the site
T2 sequence (P40120 33-551 D388N): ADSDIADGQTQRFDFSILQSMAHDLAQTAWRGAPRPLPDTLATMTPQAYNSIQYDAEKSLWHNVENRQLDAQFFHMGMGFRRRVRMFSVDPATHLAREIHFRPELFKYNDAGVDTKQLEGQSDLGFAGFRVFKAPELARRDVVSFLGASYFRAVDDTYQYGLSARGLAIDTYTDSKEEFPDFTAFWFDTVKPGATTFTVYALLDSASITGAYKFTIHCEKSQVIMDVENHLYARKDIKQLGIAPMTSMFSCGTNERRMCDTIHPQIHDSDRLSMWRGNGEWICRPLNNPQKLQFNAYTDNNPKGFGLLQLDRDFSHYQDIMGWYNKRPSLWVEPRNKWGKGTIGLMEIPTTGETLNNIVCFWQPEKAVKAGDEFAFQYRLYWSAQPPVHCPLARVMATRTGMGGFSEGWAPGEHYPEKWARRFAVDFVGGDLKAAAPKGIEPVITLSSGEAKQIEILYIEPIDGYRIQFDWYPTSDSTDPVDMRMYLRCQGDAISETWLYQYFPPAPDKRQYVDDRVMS

[3] = molecular target: the molecule itself; assay: SEC; Superdex 200GL (24 ml), 20 mM Tris-HCl pH 7.5, 100 mM NaCl, 0.5 mg/mL protein loaded, 0.3 mL/min; molecular weight from marker proteins
[4] = molecular target: the molecule itself; assay: crystal structure; ligand-free EcOpgD D388N, 2.95 Å, 12 monomers (six dimers) in the asymmetric unit; 0.1 M Tris-HCl pH 8.5, 0.1 M trimethylamine-N-oxide, 17% PEG 2000 MME, 20 °C
[5] = molecular target: the molecule itself; assay: crystal structure; EcOpgG D361N with β-1,2-glucan, 1.81 Å, one chain in the asymmetric unit, dimer with a symmetry mate; 0.1 M MMT pH 5.0, 27% PEG 400, 20 °C

OC[C@H]1O[C@@H](O[C@H]2[C@H](O[C@H]3[C@H](O[C@H]4[C@H](O[C@H]5[C@H](O[C@H]6[C@H](O[C@H]7[C@H](O[C@H]8[C@H](O[C@H]9[C@H](O[C@H]%10[C@H](O[C@H]%11[C@H](O[C@H]%12[C@H](O[C@H]%13[C@H](O[C@H]%14[C@H](O[C@H]%15[C@H](O[C@H]%16C(O)O[C@H](CO)[C@@H](O)[C@@H]%16O)O[C@H](CO)[C@@H](O)[C@@H]%15O)O[C@H](CO)[C@@H](O)[C@@H]%14O)O[C@H](CO)[C@@H](O)[C@@H]%13O)O[C@H](CO)[C@@H](O)[C@@H]%12O)O[C@H](CO)[C@@H](O)[C@@H]%11O)O[C@H](CO)[C@@H](O)[C@@H]%10O)O[C@H](CO)[C@@H](O)[C@@H]9O)O[C@H](CO)[C@@H](O)[C@@H]8O)O[C@H](CO)[C@@H](O)[C@@H]7O)O[C@H](CO)[C@@H](O)[C@@H]6O)O[C@H](CO)[C@@H](O)[C@@H]5O)O[C@H](CO)[C@@H](O)[C@@H]4O)O[C@H](CO)[C@@H](O)[C@@H]3O)O[C@H](CO)[C@@H](O)[C@@H]2O)[C@H](O)[C@@H](O)[C@@H]1O (stereo partly drawn) [Sop16]
X-ray crystal structure of the complex (1.81 Å) [1]: In the catalytic pocket of the complex, the electron density of a Sop16 molecule was observed

OC[C@H]1O[C@@H](O[C@H]2[C@H](O[C@H]3[C@H](O[C@H]4[C@H](O[C@H]5[C@H](O[C@H]6[C@H](O[C@H]7[C@H](O[C@H]8[C@H](O[C@H]9[C@H](O[C@H]%10[C@H](O[C@H]%11[C@H](O[C@H]%12[C@H](O[C@H]%13C(O)O[C@H](CO)[C@@H](O)[C@@H]%13O)O[C@H](CO)[C@@H](O)[C@@H]%12O)O[C@H](CO)[C@@H](O)[C@@H]%11O)O[C@H](CO)[C@@H](O)[C@@H]%10O)O[C@H](CO)[C@@H](O)[C@@H]9O)O[C@H](CO)[C@@H](O)[C@@H]8O)O[C@H](CO)[C@@H](O)[C@@H]7O)O[C@H](CO)[C@@H](O)[C@@H]6O)O[C@H](CO)[C@@H](O)[C@@H]5O)O[C@H](CO)[C@@H](O)[C@@H]4O)O[C@H](CO)[C@@H](O)[C@@H]3O)O[C@H](CO)[C@@H](O)[C@@H]2O)[C@H](O)[C@@H](O)[C@@H]1O (stereo partly drawn) [Sop13]
X-ray crystal structure of the complex (2.06 Å) [2]: electron densities of β-1,2-glucans with DP11 and DP13 (Sop11 and Sop13, respectively) were clearly observed

B1: OpgD from E. coli (EcOpgD), wild type, without signal sequence, C-terminal His6-tag (enzyme, Escherichia coli, UniProt P40120 33-551, looked up)
chain: ADSDIADGQTQRFDFSILQSMAHDLAQTAWRGAPRPLPDTLATMTPQAYNSIQYDAEKSLWHNVENRQLDAQFFHMGMGFRRRVRMFSVDPATHLAREIHFRPELFKYNDAGVDTKQLEGQSDLGFAGFRVFKAPELARRDVVSFLGASYFRAVDDTYQYGLSARGLAIDTYTDSKEEFPDFTAFWFDTVKPGATTFTVYALLDSASITGAYKFTIHCEKSQVIMDVENHLYARKDIKQLGIAPMTSMFSCGTNERRMCDTIHPQIHDSDRLSMWRGNGEWICRPLNNPQKLQFNAYTDNNPKGFGLLQLDRDFSHYQDIMGWYNKRPSLWVEPRNKWGKGTIGLMEIPTTGETLDNIVCFWQPEKAVKAGDEFAFQYRLYWSAQPPVHCPLARVMATRTGMGGFSEGWAPGEHYPEKWARRFAVDFVGGDLKAAAPKGIEPVITLSSGEAKQIEILYIEPIDGYRIQFDWYPTSDSTDPVDMRMYLRCQGDAISETWLYQYFPPAPDKRQYVDDRVMS
notes: OpgD (glucans biosynthesis protein D) of Escherichia coli, gene amplified from a colony of E. coli BL21(DE3), GenBank CAQ31910.2; theoretical mass 60601 Da; Cloned between the XhoI and NdeI sites of pET30a; also called MdoD; source: E. coli BL21(DE3), purified (HisTrap FF crude)
stoichiometry N [3]: 2

B2: EcOpgD D388N mutant, without signal sequence, C-terminal His6-tag (enzyme, Escherichia coli, UniProt P40120 33-551, looked up)
chain: ADSDIADGQTQRFDFSILQSMAHDLAQTAWRGAPRPLPDTLATMTPQAYNSIQYDAEKSLWHNVENRQLDAQFFHMGMGFRRRVRMFSVDPATHLAREIHFRPELFKYNDAGVDTKQLEGQSDLGFAGFRVFKAPELARRDVVSFLGASYFRAVDDTYQYGLSARGLAIDTYTDSKEEFPDFTAFWFDTVKPGATTFTVYALLDSASITGAYKFTIHCEKSQVIMDVENHLYARKDIKQLGIAPMTSMFSCGTNERRMCDTIHPQIHDSDRLSMWRGNGEWICRPLNNPQKLQFNAYTDNNPKGFGLLQLDRDFSHYQDIMGWYNKRPSLWVEPRNKWGKGTIGLMEIPTTGETLNNIVCFWQPEKAVKAGDEFAFQYRLYWSAQPPVHCPLARVMATRTGMGGFSEGWAPGEHYPEKWARRFAVDFVGGDLKAAAPKGIEPVITLSSGEAKQIEILYIEPIDGYRIQFDWYPTSDSTDPVDMRMYLRCQGDAISETWLYQYFPPAPDKRQYVDDRVMS
notes: made from the EcOpgD plasmid of m1; text and methods say D388N; source: E. coli BL21(DE3), purified (HisTrap FF crude)
binding result [4]: binds

B3: OpgG from E. coli (EcOpgG), wild type, without signal sequence, C-terminal His6-tag (enzyme, Escherichia coli, UniProt P33136 23-511, looked up)
chain: FSIDDVAKQAQSLAGKGYETPKSNLPSVFRDMKYADYQQIQFNHDKAYWNNLKTPFKLEFYHQGMYFDTPVKINEVTATAVKRIKYSPDYFTFGDVQHDKDTVKDLGFAGFKVLYPINSKDKNDEIVSMLGASYFRVIGAGQVYGLSARGLAIDTALPSGEEFPRFKEFWIERPKPTDKRLTIYALLDSPRATGAYKFVVMPGRDTVVDVQSKIYLRDKVGKLGVAPLTSMFLFGPNQPSPANNYRPELHDSNGLSIHAGNGEWIWRPLNNPKHLAVSSFSMENPQGFGLLQRGRDFSRFEDLDDRYDLRPSAWVTPKGEWGKGSVELVEIPTNDETNDNIVAYWTPDQLPEPGKEMNFKYTITFSRDEDKLHAPDNAWVQQTRRSTGDVKQSNLIRQPDGTIAFVVDFTGAEMKKLPEDTPVTAQTSIGDNGEIVESTVRYNPVTKGWRLVMRVKVKDAKKTTEMRAALVNADQTLSETWSYQLPANE
notes: OpgG (glucans biosynthesis protein G) of Escherichia coli, gene amplified from a colony of E. coli BL21(DE3), GenBank CAQ31569.1; theoretical mass 56543 Da; Cloned between the XhoI and NdeI sites of pET30a; also called MdoG; source: E. coli BL21(DE3), purified (HisTrap FF crude)
stoichiometry N [3]: 2

B4: EcOpgG D361N mutant, without signal sequence, C-terminal His6-tag (enzyme, Escherichia coli, UniProt P33136 23-511, looked up)
chain: FSIDDVAKQAQSLAGKGYETPKSNLPSVFRDMKYADYQQIQFNHDKAYWNNLKTPFKLEFYHQGMYFDTPVKINEVTATAVKRIKYSPDYFTFGDVQHDKDTVKDLGFAGFKVLYPINSKDKNDEIVSMLGASYFRVIGAGQVYGLSARGLAIDTALPSGEEFPRFKEFWIERPKPTDKRLTIYALLDSPRATGAYKFVVMPGRDTVVDVQSKIYLRDKVGKLGVAPLTSMFLFGPNQPSPANNYRPELHDSNGLSIHAGNGEWIWRPLNNPKHLAVSSFSMENPQGFGLLQRGRDFSRFEDLDDRYDLRPSAWVTPKGEWGKGSVELVEIPTNDETNNNIVAYWTPDQLPEPGKEMNFKYTITFSRDEDKLHAPDNAWVQQTRRSTGDVKQSNLIRQPDGTIAFVVDFTGAEMKKLPEDTPVTAQTSIGDNGEIVESTVRYNPVTKGWRLVMRVKVKDAKKTTEMRAALVNADQTLSETWSYQLPANE
notes: made from the EcOpgG plasmid of m2; One monomer in the asymmetric unit; the second chain of the dimer is a symmetry mate; source: E. coli BL21(DE3), purified (HisTrap FF crude)
binding result [5]: binds
